Measured values as given in patent publication US5686572, “Domains of extracellular region of human platelet derived growth factor receptor polypeptides” (Cor Therapeutics, Inc., dated 1997).

Tests used:
PDGF BB [1] = target: T1, PDGF BB (Homo sapiens (Human), UniProt P01127); assay: solid-phase plate assay, displacement of bound 125I-PDGF BB by unlabeled PDGF BB
Experimental: (§1) This fraction was then applied to Sephacryl S-200 HR (Pharmacia) equilibrated in 0.15M ammonium bicarbonate pH 7.9. The fractions containing receptor (3–10 ng/μl) were detected by SDS-PAGE and Western blotting with a polyclonal rabbit antibody, made by standard methods, against a Domain 1 (D1) segment from the receptor external region. These fractions (3–10 ng/μl) were used to coat the microtiter wells as described above. The wells were then drained, rinsed once with 200 μl each of 0.5% gelatin (BioRad, EIA grade), 25 mM Hepes, 100 mM NaCl, pH 7.4, and incubated for 1–2 h at 24° C. with 150 μl of this same solution. The wells were drained and rinsed twice with 0.3% gelatin, 25 mM Hepes, 100 mM NaCl, pH 7.4 (150 μl each). […] The bound radioactivity remaining was solubilized from the wells in 200 μl 1% SDS, 0.5% BSA, and counted in a gamma-counter. The nonspecific binding was determined in the presence of a 150-fold excess of unlabeled PDGF BB (Amgen) and was about 7% of the total bound ^125I-PDGF.
(§2) Using iodinated PDGF-BB, the specific binding of less than 10 pg of ligand can be detected in an assay volume of […]. […] The nonspecific binding, determined in the presence of a […] of cold PDGF BB, was usually only about 5–10% of the total binding.

PDGF BB [2] = target: T1, PDGF BB; assay: competition: soluble receptor fragment against its immobilized form for binding 125I-PDGF BB
Experimental: as §1, §2

PDGF BB [3] = target: T1, PDGF BB; assay: solid-phase plate assay, 125I-PDGF BB bound after 4 h at 4° C., dissociation in buffer
Experimental: as §1, §2

PDGF BB [4] = target: T1, PDGF BB; assay: solid-phase plate assay at 4° C., 125I-PDGF BB on the receptor fragment coated on polystyrene wells, Scatchard analysis
Experimental: as §1, §2

B1: extracellular region fragment of the type B human PDGF receptor (soluble, PΔ1 construct, D1-D2-D3-D4-D5) (receptor)
chain: LVVTPPGPELVLNVSSTFVLTCSGSAPVVWERMSQEPPQEMAKAQDGTFSSVLTLTNLTGLDTGEYFCTHNDSRGLETDERKRLYIFVPDPTVGFLPNDAEELFIFLTEITEITIPCRVTDPQLVVTLHEKKGDVALPVPYDHQRGFSGIFEDRSYICKTTIGDREVDSDAYYVYRLQVSSINVSVNAVQTVVRQGENITLMCIVIGNDVVNFEWTYPRKESGRLVEPVTDFLLDMPYHIRSILHIPSAELEDSGTYTCNVTESVNDHQDEKAINITVVESGYVRLLGEVGTLQFAELHRSRTLQVVFEAYPPPTVLWFKDNRTLGDSSAGEIALSTRNVSETRYVSELTLVRVKVAEAGHYTMRAFHEDAEVQLSFQLQINVPVRVLELSESHPDSGEQTVRCRGRGMPQPNIIWSACRDLKRCPRELPPTLLGNSSEEESQLETNVTYWEEEQEFEVVSTLRLQH
For B1, which “t1/2 of displacement by 150-fold excess of unlabeled PDGF BB” value (PDGF BB [1]) is on record?
The value was under 1 h.

What about the IC50 (PDGF BB [2]) of the same binder?
Its IC50 is 5 nM.

And the “t1/2 of dissociation in binding buffer” value (PDGF BB [3])?
Its value is over 6 h.

What about the Kd (PDGF BB [4]) of the same binder?
The Kd was about 1 nM.
